Earlier results on one substance are cited in paper PMC6331645.

As a reminder, the Kd is a measure of binding affinity in units of concentration.

This series concerns the target Raf1 RBD RBD (Homo sapiens) (UniProt P04049).

KRas (from UniProt P01116): the Kd is 20 nM.
